B1: Sentrin-specific protease 7 (Homo sapiens), Q9BQF6 (parent)
chain: MDKRKLGRRPSSSEIITEGKRKKSSSDLSEIRKMLNAKPEDVHVQSPLSKFRSSERWTLPLQWERSLRNKVISLDHKNKKHIRGCPVTSKSSPERQLKVMLTNVLWTDLGRKFRKTLPRNDANLCDANKVQSDSLPSTSVDSLETCQKLEPLRQSLNLSERIPRVILTNVLGTELGRKYIRTPPVTEGSLSDTDNLQSEQLSSSSDGSLESYQNLNPHKSCYLSERGSQRSKTVDDNSAKQTAHNKEKRRKDDGISLLISDTQPEDLNSGSRGCDHLEQESRNKDVKYSDSKVELTLISRKTKRRLRNNLPDSQYCTSLDKSTEQTKKQEDDSTISTEFEKPSENYHQDPKLPEEITTKPTKSDFTKLSSLNSQELTLSNATKSASAGSTTETVENSNSIDIVGISSLVEKDENELNTIEKPILRGHNEGNQSLISAEPIVVSSDEEGPVEHKSSEILKLQSKQDRETTNENESTSESALLELPLITCESVQMSSELCPYNPVMENISSIMPSNEMDLQLDFIFTSVYIGKIKGASKGCVTITKKYIKIPFQVSLNEISLLVDTTHLKRFGLWKSKDDNHSKRSHAILFFWVSSDYLQEIQTQLEHSVLSQQSKSSEFIFLELHNPVSQREELKLKDIMTEISIISGELELSYPLSWVQAFPLFQNLSSKESSFIHYYCVSTCSFPAGVAVAEEMKLKSVSQPSNTDAAKPTYTFLQKQSSGCYSLSITSNPDEEWREVRHTGLVQKLIVYPPPPTKGGLGVTNEDLECLEEGEFLNDVIIDFYLKYLILEKASDELVERSHIFSSFFYKCLTRKENNLTEDNPNLSMAQRRHKRVRTWTRHINIFNKDYIFVPVNESSHWYLAVICFPWLEEAVYEDFPQTVSQQSQAQQSQNDNKTIDNDLRTTSTLSLSAEDSQSTESNMSVPKKMCKRPCILILDSLKAASVQNTVQNLREYLEVEWEVKLKTHRQFSKTNMVDLCPKVPKQDNSSDCGVYLLQYVESFFKDPIVNFELPIHLEKWFPRHVIKTKREDIRELILKLHLQQQKGSSS

Variants of B1 are the subject of one assay. As to conditions: with tif1b_human TRIM28, Q13263.
Chain of tif1b_human TRIM28, Q13263 (Q13263 whole entry): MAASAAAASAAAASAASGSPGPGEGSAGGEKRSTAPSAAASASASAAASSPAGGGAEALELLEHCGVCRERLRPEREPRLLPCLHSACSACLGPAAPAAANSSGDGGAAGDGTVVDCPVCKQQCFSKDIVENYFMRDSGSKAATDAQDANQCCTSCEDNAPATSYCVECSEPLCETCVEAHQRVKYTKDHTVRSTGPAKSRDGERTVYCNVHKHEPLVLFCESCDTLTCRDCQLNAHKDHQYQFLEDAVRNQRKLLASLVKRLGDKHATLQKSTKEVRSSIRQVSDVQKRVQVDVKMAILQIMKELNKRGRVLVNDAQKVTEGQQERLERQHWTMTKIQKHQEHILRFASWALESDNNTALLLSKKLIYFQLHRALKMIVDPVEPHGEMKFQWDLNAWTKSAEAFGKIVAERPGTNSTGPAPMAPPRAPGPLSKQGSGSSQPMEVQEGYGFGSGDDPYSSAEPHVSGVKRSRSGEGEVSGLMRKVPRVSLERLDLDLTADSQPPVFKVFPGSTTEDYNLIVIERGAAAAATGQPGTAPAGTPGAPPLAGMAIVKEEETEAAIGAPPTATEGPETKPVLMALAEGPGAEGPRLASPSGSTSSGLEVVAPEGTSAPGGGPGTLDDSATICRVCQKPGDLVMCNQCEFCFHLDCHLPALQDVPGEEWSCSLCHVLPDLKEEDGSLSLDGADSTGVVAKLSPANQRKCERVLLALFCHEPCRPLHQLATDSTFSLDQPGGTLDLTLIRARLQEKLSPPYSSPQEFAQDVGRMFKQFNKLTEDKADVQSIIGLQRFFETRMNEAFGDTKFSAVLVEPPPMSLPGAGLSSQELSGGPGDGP
With C992A, the “effect of a mutation on the interaction” value is “increasing interaction”.

The next assay covers variants of B1. As to conditions: with cbx5_human CBX5, P45973.
Chain of cbx5_human CBX5, P45973 (P45973 whole entry): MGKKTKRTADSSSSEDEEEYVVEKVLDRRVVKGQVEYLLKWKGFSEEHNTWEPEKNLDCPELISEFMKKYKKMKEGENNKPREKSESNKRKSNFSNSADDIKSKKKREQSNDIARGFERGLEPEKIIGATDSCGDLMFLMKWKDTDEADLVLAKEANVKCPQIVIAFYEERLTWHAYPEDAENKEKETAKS
Turning to L149A;L152A;L156A;L158A;P163A;V165A, the “effect of a mutation on the interaction” value is listed as “disrupting interaction”.

A further assay covers variants of B1. The following applies: with tif1b_human TRIM28, Q13263. The source holds these as a separate data set.
L149A;L152A;L156A;L158A;P163A;V165A: the “effect of a mutation on the interaction” value is listed as “disrupting interaction”.

The values are drawn from IntAct's records for PubMed 24018422.
